From publication PMC9273615, “Regulation of AUXIN RESPONSE FACTOR condensation and nucleo-cytoplasmic partitioning” (Nature Communications, 2022)

Tests used:
[1] = molecular target: T1, GST-AFF1 (AUXIN RESPONSE FACTOR F-BOX1, At3g49150) (Arabidopsis thaliana, UniProt Q9M3B7 1-630); assay: pull-down; 2 μg GST fusion immobilised on glutathione agarose, mixed with 2 μg His-ASK1, 4 °C, 2 hr; six washes; immunoblot with anti-His and anti-GST; conditions: both partners purified
T1 construct: AUXIN RESPONSE FACTOR F-BOX1 (AFF1), F-box protein encoded by At3g49150, Arabidopsis thaliana; also called GST-AFF1 recombinant protein; not shown: GST, N-terminal, kept
T1 sequence (looked up): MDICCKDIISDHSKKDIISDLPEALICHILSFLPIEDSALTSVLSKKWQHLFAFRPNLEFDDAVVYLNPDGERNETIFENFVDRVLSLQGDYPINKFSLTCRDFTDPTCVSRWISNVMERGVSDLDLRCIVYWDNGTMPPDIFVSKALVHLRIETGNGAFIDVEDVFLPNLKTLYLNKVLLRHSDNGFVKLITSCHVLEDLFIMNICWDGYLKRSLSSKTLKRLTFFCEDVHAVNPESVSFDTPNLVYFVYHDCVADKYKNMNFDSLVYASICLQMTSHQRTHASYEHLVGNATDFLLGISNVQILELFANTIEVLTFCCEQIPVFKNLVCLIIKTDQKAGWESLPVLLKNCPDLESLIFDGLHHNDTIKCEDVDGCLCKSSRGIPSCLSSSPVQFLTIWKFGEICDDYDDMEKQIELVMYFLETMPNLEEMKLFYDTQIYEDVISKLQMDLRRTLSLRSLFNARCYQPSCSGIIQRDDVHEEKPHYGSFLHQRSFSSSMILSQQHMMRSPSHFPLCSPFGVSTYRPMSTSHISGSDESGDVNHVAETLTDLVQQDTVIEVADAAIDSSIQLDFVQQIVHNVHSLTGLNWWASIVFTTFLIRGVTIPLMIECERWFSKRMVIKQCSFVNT

[2] = molecular target: T2, GST-AFF1 (AUXIN RESPONSE FACTOR F-BOX1, At3g49150) (Arabidopsis thaliana (Mouse-ear cress), UniProt Q9M3B7); assay: GST pull-down with immunoblot
T2 chain: T1 sequence (looked up)

B1: His-ASK1 (ARABIDOPSIS SKP1-LIKE 1) (natural protein, UniProt Q39255 1-160, looked up)
chain: MSAKKIVLKSSDGESFEVEEAVALESQTIAHMVEDDCVDNGVPLPNVTSKILAKVIEYCKRHVEAAASKAEAVEGAATSDDDLKAWDADFMKIDQATLFELILAANYLNIKNLLDLTCQTVADMIKGKTPEEIRTTFNIKNDFTPEEEEEVRRENQWAFE
notes: ARABIDOPSIS SKP1-LIKE (ASK1), Arabidopsis thaliana; not shown: His, N-terminal, kept
binding result [1]: binds
binding result [2]: binds
